Patent US20240150422A1

Each substance was assayed against IL-12 receptor on HEK-Blue IL-12 cells (InvivoGen) (human) (UniProt P42701) (assay: cell-based or functional assay).
IL-12 receptor on HEK-Blue IL-12 cells (InvivoGen) (human), sequence (chain, as listed by the source limits assumed, chain 2 of 2, other chains not shown): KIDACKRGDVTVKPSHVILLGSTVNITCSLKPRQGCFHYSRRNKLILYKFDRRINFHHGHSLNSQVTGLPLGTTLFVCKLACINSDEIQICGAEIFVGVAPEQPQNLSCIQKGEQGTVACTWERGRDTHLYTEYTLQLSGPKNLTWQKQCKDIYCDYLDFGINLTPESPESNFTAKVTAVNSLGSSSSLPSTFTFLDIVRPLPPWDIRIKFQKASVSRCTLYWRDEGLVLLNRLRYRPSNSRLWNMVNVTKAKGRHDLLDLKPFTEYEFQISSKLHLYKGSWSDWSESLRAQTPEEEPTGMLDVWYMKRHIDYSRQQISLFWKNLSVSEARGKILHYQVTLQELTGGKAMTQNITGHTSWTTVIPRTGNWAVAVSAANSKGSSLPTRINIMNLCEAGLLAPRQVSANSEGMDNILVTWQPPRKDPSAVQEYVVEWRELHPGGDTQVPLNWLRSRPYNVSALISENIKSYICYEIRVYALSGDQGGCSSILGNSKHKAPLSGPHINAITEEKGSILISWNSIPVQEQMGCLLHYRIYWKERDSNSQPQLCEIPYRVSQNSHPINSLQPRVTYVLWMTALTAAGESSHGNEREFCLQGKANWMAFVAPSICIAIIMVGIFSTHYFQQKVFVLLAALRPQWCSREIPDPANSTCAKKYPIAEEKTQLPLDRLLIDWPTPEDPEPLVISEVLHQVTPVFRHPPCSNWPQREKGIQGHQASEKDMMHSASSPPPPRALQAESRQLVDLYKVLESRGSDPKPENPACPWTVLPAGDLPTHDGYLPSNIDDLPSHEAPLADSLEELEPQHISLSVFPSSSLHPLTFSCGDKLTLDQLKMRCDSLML

“IL-12 Fc double mutant Y40A/D126A (format of Example 1) (from UniProt P29459 23-219; P29460 23-328) (Fc fusion)” was tested. Which HEK-Blue IL-12 reporter assay, fold reduction in potency (fold (vs IL-12 Fc w.t.)) did it give?
Its HEK-Blue IL-12 reporter assay, fold reduction in potency (fold (vs IL-12 Fc w.t.)) is 38.

With “IL-12 Fc double mutant Y40A/K168A (Example 7) (from UniProt P29459 23-219; P29460 23-328) (Fc fusion)” as the substance, how does the HEK-Blue IL-12 reporter assay, fold reduction in EC50 value (fold (vs wild-type)) read?
Its HEK-Blue IL-12 reporter assay, fold reduction in EC50 value (fold (vs wild-type)) is 67.

How did the HEK-Blue IL-12 reporter assay, fold reduction in EC50 value (fold (vs wild-type)) turn out when “IL-12 Fc double mutant Y40A/K170A (Example 7) (from UniProt P29459 23-219; P29460 23-328) (Fc fusion)” was run?
Its HEK-Blue IL-12 reporter assay, fold reduction in EC50 value (fold (vs wild-type)) is 6540.

How did the HEK-Blue IL-12 reporter assay, fold reduction in potency (fold (vs IL-12 Fc w.t.)) turn out when “IL-12 Fc double mutant Y40A/P127A (format of Example 1) (from UniProt P29459 23-219; P29460 23-328) (Fc fusion)” was run?
Its HEK-Blue IL-12 reporter assay, fold reduction in potency (fold (vs IL-12 Fc w.t.)) is 40.

For “IL-12 Fc double mutant Y40A/R129A (Example 7) (from UniProt P29459 23-219; P29460 23-328) (Fc fusion)”, which HEK-Blue IL-12 reporter assay, fold reduction in EC50 value (fold (vs wild-type)) is on record?
The HEK-Blue IL-12 reporter assay, fold reduction in EC50 value (fold (vs wild-type)) was 44.

Which HEK-Blue IL-12 reporter assay, fold reduction in potency (fold (vs IL-12 Fc w.t.)) does the source give for “IL-12 Fc quadruple mutant Y40A/T43A/D126A/P127A (format of Example 1) (from UniProt P29459 23-219; P29460 23-328) (Fc fusion)” here?
The HEK-Blue IL-12 reporter assay, fold reduction in potency (fold (vs IL-12 Fc w.t.)) was 451.

Which HEK-Blue IL-12 reporter assay, fold reduction in potency (fold (vs IL-12 Fc w.t.)) does the source give for “IL-12 Fc triple mutant Y40A/D126A/P127A (format of Example 1) (from UniProt P29459 23-219; P29460 23-328) (Fc fusion)” here?
The HEK-Blue IL-12 reporter assay, fold reduction in potency (fold (vs IL-12 Fc w.t.)) was 404.
